Reference: patent publication US20120288536

Target: pSTAT3 (tyrosine-phosphorylated STAT3) (UniProt P40763)
Assay: SPR
Conditions: PS x3 at 5' end of sense and 3' end of antisense; strands linked at one end by C-18 (18-atom hexa-ethyleneglycol) spacers; Langmuir 1:1, 4 C, 20 mM HEPES pH 7.0, 200 mM NaCl, 10 mM MgCl2

Chain of pSTAT3 (tyrosine-phosphorylated STAT3) (P40763 whole entry): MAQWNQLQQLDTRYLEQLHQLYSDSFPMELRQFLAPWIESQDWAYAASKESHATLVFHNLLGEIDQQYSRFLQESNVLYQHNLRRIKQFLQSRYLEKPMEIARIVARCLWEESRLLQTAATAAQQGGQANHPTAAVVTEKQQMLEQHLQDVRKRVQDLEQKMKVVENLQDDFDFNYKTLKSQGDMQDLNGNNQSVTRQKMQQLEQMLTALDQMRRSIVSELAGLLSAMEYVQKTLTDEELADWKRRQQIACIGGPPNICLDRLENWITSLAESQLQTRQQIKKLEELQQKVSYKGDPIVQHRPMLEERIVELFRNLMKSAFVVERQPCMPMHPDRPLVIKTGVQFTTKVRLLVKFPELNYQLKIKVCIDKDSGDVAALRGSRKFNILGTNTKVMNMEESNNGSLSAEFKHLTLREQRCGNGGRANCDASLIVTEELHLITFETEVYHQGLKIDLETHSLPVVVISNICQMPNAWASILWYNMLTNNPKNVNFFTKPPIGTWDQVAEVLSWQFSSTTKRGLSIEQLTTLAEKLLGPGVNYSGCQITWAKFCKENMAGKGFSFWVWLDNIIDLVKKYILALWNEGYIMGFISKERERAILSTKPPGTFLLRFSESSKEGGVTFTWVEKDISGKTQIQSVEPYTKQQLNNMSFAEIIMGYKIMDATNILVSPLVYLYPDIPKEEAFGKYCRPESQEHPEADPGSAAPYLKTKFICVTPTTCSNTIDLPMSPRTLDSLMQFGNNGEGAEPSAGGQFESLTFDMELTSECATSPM

With CATTTCCCGTAAATC (double strand) [DS18] the Kd was 142 nM.
